# Laboratory results: patent US20100273722
# Assay: sedimentation equilibrium AUC, self-association, 25 C
substance,measurement,value
pancreatic peptide YY (PYY),% monomer at 30 µM,94%
